Target: cardiac troponin T (cTn-T) (UniProt P45379)
Assay: electrochemical aptasensor
Settings: thiol (end not stated); Protein in 10 mM PBS pH 7.4, 30 min on BSA-blocked electrode, PBS wash; read in 0.10 M KCl with 5.0 mM K3/K4[Fe(CN)6]; temperature not stated

For “CGTGCAGTACGCCAACCTTTCTCATGCGCTGCCCCTCTTA [cTn-I aptamer (Jo et al.)]”, the binding signal (% normalized response) was under 5.

Reference: PMC9599711
